{"source": "patent US20040053816A1", "about": "(COUNCIL OF SCIENTIFIC AND INDUSTRIAL RESEARCH, published 2004)", "binders": {"B1": {"name": "Purified adipocyte insulin (Adplnsl) of the carp Catla catla (ligand)", "chain 1": "GIVEQCCHKPCSIFELQNYCN", "chain 2": "PGAPQHLCGSHLVDALYLVCGPTGFFYNPK"}}, "molecular_target": "insulin receptor (IR) of carp adipocytes (carp Catla catla)", "test": "cell-based or functional assay", "data": [{"binder": "B1", "values": [{"measurement": "glucose uptake by adipocyte", "value": 2, "unit": "fold"}]}]}
